# According to patent publication CN110655572A:
# B1: 单克隆抗体40C1L (antibody, V domains shown)
# VH: EVQLVQSGAEVKRPGESLKISCKTSGYSFPTYWITWVRQMPGKGLEWMGTIDLSDSETKYSPSFDGQVTISADKSINTAYLQWSSLKASDSATYYCAMRYSNYRTWFNVWGPGVLVTVSS
# VL: SYDLTQPPSVSVSPGQTARITCGGDNIGSEAVHWYQQQPPQAPVLVIYYNRERPSGIPERFSGSKSGNTATLTISGVEAGDEADYYCQLWDSSSDYPLFGGGTRLTVL
# What was measured:
# [1] = target: 扎依尔型GP蛋白 (扎依尔型埃博拉病毒 (ZEBOV)); assay: cell-based or functional assay
# [2] = target: 苏丹型GP蛋白 (苏丹型埃博拉病毒 (SUDV)); assay: cell-based or functional assay
# [3] = target: 马尔堡病毒GP蛋白 (马尔堡病毒 (MARV)); assay: cell-based or functional assay
# [4] = target: 扎依尔型GP蛋白 (扎依尔型埃博拉病毒 (ZEBOV)); assay: ELISA, GP protein coated on plate, goat anti-human IgG-HRP detection
# [5] = target: 苏丹型GP蛋白 (苏丹型埃博拉病毒 (SUDV)); assay: as above
# [6] = target: 马尔堡病毒GP蛋白 (马尔堡病毒 (MARV)); assay: as above
binder,measurement,setting,value
B1,假病毒中和 最大半数抑制浓度(IC50),[1],25.3 µg/mL
same,假病毒中和 最大半数抑制浓度(IC50),[2],3.12 µg/mL
same,假病毒中和 最大半数抑制浓度(IC50),[3],14.5 µg/mL
same,EC50,[4],0.697 µg/mL
same,EC50,[5],2.09 µg/mL
same,EC50,[6],0.342 µg/mL
